In data set [1] the test system is HeLa Kyoto. Nature of the data set: solubility in G1/S (NP-40 vs SDS abundance) (log2 ratio); higher = more soluble. To be noted: cell cycle stage: G1/S.
Data set [2] concerns HeLa Kyoto. The data set can be described thus: solubility change mitosis vs G1/S (difference of NP-40 vs SDS log2 ratios) (log2 ratio difference); higher = more soluble in mitosis.
Data set [3] deals with HeLa Kyoto. The data set can be described thus: thermal stability score vs G1/S (z-score of summed log2 fold changes over temperatures); higher = more thermally stable than in G1/S.
Where [4] appears, read: cell cycle stage: early G1 (4.5 h after nocodazole release).
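Wherever solubility change mitosis vs G1/S (difference of NP-40 vs SDS log2 ratios) is given: synchronized HeLa Kyoto cells (double thymidine block for G1/S, nocodazole release for mitosis), protein amounts in NP-40 versus SDS lysates quantified by mass spectrometry, three biological replicates.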
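Wherever solubility in G1/S (NP-40 vs SDS abundance) is given: HeLa Kyoto cells arrested at G1/S by double thymidine block, proteins quantified by TMT10plex mass spectrometry in mild NP-40 versus SDS extracts, three biological replicates.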
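Wherever thermal stability score vs G1/S (z-score of summed log2 fold changes over temperatures) is given: synchronized HeLa Kyoto cells, proteins quantified by TMT10plex mass spectrometry, three biological replicates, mitosis taken 0.5 h after nocodazole release, G1/S directly after double thymidine block.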

In the case of “MIPVSLVVVVVGGWTVVYLTDLVLKSSVYFKHSYEDWLENNGLSISPFHIRWQTAVFNRAFYSWGRRKARMLYQWFNFGMVFGVIAMFSSFFLLGKTLMQTLAQMMADSPSSYSSSSSSSSSSSSSSSSSSSSSSSLHNEQVLQVVVPGINLPVNQLTYFFTAVLISGVVHEIGHGIAAIREQVRFNGFGIFLFIIYPGAFVDLFTTHLQLISPVQQLRIFCAGIWHNFVLALLGILALVLLPVILLPFYYTGVGVLITEVAEDSPAIGPRGLFVGDLVTHLQDCPVTNVQDWNECLDTIAYEPQIGYCISASTLQQLSFPVRAYKRLDGSTECCNNHSLTDVCFSYRNNFNKRLHTCLPARKAVEATQVCRTNKDCKKSSSSSFCIIPSLETHTRLIKVKHPPQIDMLYVGHPLHLHYTVSITSFIPRFNFLSIDLPVVVETFVKYLISLSGALAIVNAVPCFALDGQWILNSFLDATLTSVIGDNDVKDLIGFFILLGGSVLLAANVTLGLWMVTAR [MBTPS2]”, the “solubility in G1/S (log2)” value in the data set with HeLa Kyoto [1] is -0.23. In addition, the “solubility change mitosis (log2)” value in the data set on HeLa Kyoto [2] was -0.109. For the same substance, the thermal stability score with HeLa Kyoto [3] (setting [4]) was -0.0953; with HeLa Kyoto [3] (cell cycle stage: mitosis), -0.633.
For “MKAGATSMWASCCGLLNEVMGTGAVRGQQSAFAGATGPFRFTPNPEFSTYPPAATEGPNIVCKACGLSFSVFRKKHVCCDCKKDFCSVCSVLQENLRRCSTCHLLQETAFQRPQLMRLKVKDLRQYLILRNIPIDTCREKEDLVDLVLCHHGLGSEDDMDTSSLNSSRSQTSSFFTRSFFSNYTAPSATMSSFQGELMDGDQTSRSGVPAQVQSEITSANTEDDDDDDDEDDDDEEENAEDRNPGLSKERVRASLSDLSSLDDVEGMSVRQLKEILARNFVNYSGCCEKWELVEKVNRLYKENEENQKSYGERLQLQDEEDDSLCRICMDAVIDCVLLECGHMVTCTKCGKRMSECPICRQYVVRAVHVFKS [RNF34]”, in that order: 0.0303, -0.0561, 0.687 and 0.834.
With “MKRRNADCSKLRRPLKRNRITEGIYGSTFLYLKFLVVWALVLLADFVLEFRFEYLWPFWLFIRSVYDSFRYQGLAFSVFFVCVAFTSNIICLLFIPIQWLFFAASTYVWVQYVWHTERGVCLPTVSLWILFVYIEAAIRFKDLKNFHVDLCRPFAAHCIGYPVVTLGFGFKSYVSYKMRLRKQKEVQKENEFYMQLLQQALPPEQQMLQKQEKEAEEAAKGLPDMDSSILIHHNGGIPANKKLSTTLPEIEYREKGKEKDKDAKKHNLGINNNNILQPVDSKIQEIEYMENHINSKRLNNDLVGSTENLLKEDSCTASSKNYKNASGVVNSSPRSHSATNGSIPSSSSKNEKKQKCTSKSPSTHKDLMENCIPNNQLSKPDALVRLEQDIKKLKADLQASRQVEQELRSQISSLSSTERGIRSEMGQLRQENELLQNKLHNAVQMKQKDKQNISQLEKKLKAEQEARSFVEKQLMEEKKRKKLEEATAARAVAFAAASRGECTETLRNRIRELEAEGKKLTMDMKVKEDQIRELELKVQELRKYKENEKDTEVLMSALSAMQDKTQHLENSLSAETRIKLDLFSALGDAKRQLEIAQGQILQKDQEIKDLKQKIAEVMAVMPSITYSAATSPLSPVSPHYSSKFVETSPSGLDPNASVYQPLKK [TMEM57]”, in the data set with HeLa Kyoto [1], the “solubility in G1/S (log2)” value is -0.363. Moreover, the “solubility change mitosis (log2)” value in the data set with HeLa Kyoto [2] was determined as 0.256. Besides, the figures for the thermal stability score with HeLa Kyoto [3] (setting [4]) and in the data set on HeLa Kyoto [3] (cell cycle stage: mitosis) were -1.41 and -2.47, respectively.
For “MLKKQSAGLVLWGAILFVAWNALLLLFFWTRPAPGRPPSVSALDGDPASLTREVIRLAQDAEVELERQRGLLQQIGDALSSQRGRVPTAAPPAQPRVPVTPAPAVIPILVIACDRSTVRRCLDKLLHYRPSAELFPIIVSQDCGHEETAQAIASYGSAVTHIRQPDLSSIAVPPDHRKFQGYYKIARHYRWALGQVFRQFRFPAAVVVEDDLEVAPDFFEYFRATYPLLKADPSLWCVSAWNDNGKEQMVDASRPELLYRTDFFPGLGWLLLAELWAELEPKWPKAFWDDWMRRPEQRQGRACIRPEISRTMTFGRKGVSHGQFFDQHLKFIKLNQQFVHFTQLDLSYLQREAYDRDFLARVYGAPQLQVEKVRTNDRKELGEVRVQYTGRDSFKAFAKALGVMDDLKSGVPRAGYRGIVTFQFRGRRVHLAPPLTWEGYDPSWN [MGAT1]”, in that order: -0.0579, 0.0597, 0.289 and 0.0296.
For “MNPIVVVHGGGAGPISKDRKERVHQGMVRAATVGYGILREGGSAVDAVEGAVVALEDDPEFNAGCGSVLNTNGEVEMDASIMDGKDLSAGAVSAVQCIANPIKLARLVMEKTPHCFLTDQGAAQFAAAMGVPEIPGEKLVTERNKKRLEKEKHEKGAQKTDCQKNLGTVGAVALDCKGNVAYATSTGGIVNKMVGRVGDSPCLGAGGYADNDIGAVSTTGHGESILKVNLARLTLFHIEQGKTVEEAADLSLGYMKSRVKGLGGLIVVSKTGDWVAKWTSTSMPWAAAKDGKLHFGIDPDDTTITDLP [ASRGL1]”, in the data set with HeLa Kyoto [1], the “solubility in G1/S (log2)” value worked out at 0.282. The “solubility change mitosis (log2)” value in the data set on HeLa Kyoto [2] was -0.207. For the same substance, the figures for the thermal stability score in the data set with HeLa Kyoto [3] (setting [4]) and in the data set on HeLa Kyoto [3] (cell cycle stage: mitosis) were -1.89 and -2.25, respectively.
The matching figures for MPDZ: -0.0106, 0.0126, 0.637 and 0.641.

The record behind these values is the supplement of paper PMC5998384.
